From the supplement of paper PMC10126150
± gives the standard deviation of the averaged measurements.

Each sequence was assayed on ATP (assay: switch fluorescence ratio, 500 uM ATP over buffer (Cy3 cluster intensity, sum of 5 cycles each) (fold (ratio)); higher = stronger signal-on switching upon ATP binding; sequences stand for … in TCGTCGGCAGCGTCAGATGTGTATAAGAGACAGTTTTTTTTTTTTTTTTTTTTTTTTT…TC). Conditions: aptamer strand: ATP DNA aptamer (quencher-CACCTGGGGGAGTATTGCGGAGGAAGG + anchor), 100 nM annealed; ATP concentration: 500 uM.
Procedure, shortened: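 Cy3-labelled switching-strand clusters on a modified Illumina MiSeq flow-cell were annealed to 100 nM quencher-labelled ATP aptamer and imaged first in selection buffer, then after 15 min with 500 uM ATP at 22 °C. NaOH stripping and re-annealing separated each of five buffer/ATP cycles, and clusters outside 100-1000 RFU were excluded. The fluorescence ratio sums target-cycle Cy3 intensity over buffer-cycle Cy3 intensity per cluster and averages it per switch-domain sequence.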
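Note: ATP exposure 15 min at 22 °C before imaging.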

| Sequence | switch fluorescence ratio |
| --- | --- |
| GGTATTACGA | 0.989 ± 0.036 |
| GGTATTAGTG | 1.01 ± 0.021 |
| GGTATTATTG | 0.998 ± 0.023 |
| GGTATTTAAA | 0.982 ± 0.029 |
| GGTCAAAGTG | 1.004 ± 0.0058 |
| GGTCAGAAGG | 0.996 ± 0.026 |
| GGTCATAATT | 0.986 ± 0.025 |
| GGTCATGAGG | 0.989 ± 0.023 |
| GGTCATGGGA | 0.99 ± 0.017 |
| GGTCATGTTT | 0.993 ± 0.043 |
| GGTCCGGGGC | 1.01 ± 0.026 |
| GGTCCTCGGG | 1.03 ± 0.03 |
| GGTCCTGGGG | 1.01 ± 0.039 |
| GGTCCTTAAT | 0.989 ± 0.025 |
| GGTCCTTAGG | 1 ± 0.021 |
| GGTCCTTGTT | 1.005 ± 0.0018 |
| GGTCGACTTT | 1.0094 ± 0.00072 |
| GGTCGAGCC | 0.983 ± 0.021 |
| GGTCGAGTGG | 0.988 ± 0.0032 |
| GGTCGATGGT | 0.99 ± 0.011 |
| GGTCGCATTC | 1.05 ± 0.047 |
| GGTCGCTACA | 1.01 ± 0.026 |
| GGTCGGCCGG | 1.0178 ± 0.00045 |
| GGTCGGCGGG | 1.03 ± 0.1 |
| GGTCGGCGTC | 1.014 ± 0.0089 |
| GGTCGGGACG | 0.9588 ± 0.0015 |

| Sequence | switch fluorescence ratio |
| --- | --- |
| GGTCGGGAGA | 0.96 ± 0.039 |
| GGTCGGGGGC | 1.02 ± 0.031 |
| GGTCGGGTAT | 1.01 ± 0.031 |
| GGTCGGGTGC | 0.971 ± 0.047 |
| GGTCGTAAGT | 0.988 ± 0.026 |
| GGTCGTAGAT | 1.01 ± 0.036 |
| GGTCGTTTCG | 1.01 ± 0.018 |
| GGTCTACATG | 0.985 ± 0.0076 |
| GGTCTAGG | 0.992 ± 0.036 |
| GGTCTCTGGA | 1.01 ± 0.06 |
| GGTCTGAGGG | 0.97 ± 0.032 |
| GGTCTGATGG | 0.987 ± 0.035 |
| GGTCTGGGAT | 0.9939 ± 0.0096 |
| GGTCTGGGCT | 0.976 ± 0.017 |
| GGTCTGTTAT | 1.04 ± 0.078 |
| GGTCTGTTTG | 0.97 ± 0.025 |
| GGTCTTCATT | 0.963 ± 0.011 |
| GGTGAAAACG | 0.9913 ± 0.0094 |
| GGTGACCGTT | 0.992 ± 0.012 |
| GGTGACTGAG | 1.012 ± 0.009 |
| GGTGAGACTT | 1 ± 0.031 |
| GGTGAGGATG | 0.994 ± 0.018 |
| GGTGAGGCGC | 0.985 ± 0.066 |
| GGTGAGGGAG | 0.9998 ± 0.0044 |
| GGTGAGGGGG | 1 ± 0.068 |
| GGTGAGTGCA | 1.02 ± 0.07 |

| Sequence | switch fluorescence ratio |
| --- | --- |
| GGTGAGTTGG | 0.977 ± 0.014 |
| GGTGATAATG | 0.982 ± 0.031 |
| GGTGATACGA | 1.07 ± 0.02 |
| GGTGATGTTA | 0.9786 ± 0.0049 |
| GGTGATTTGT | 1 ± 0.03 |
| GGTGATTTTA | 1 ± 0.025 |
| GGTGCACGGT | 0.978 ± 0.051 |
| GGTGCAGACG | 1.03 ± 0.018 |
| GGTGCATATT | 1.06 ± 0.081 |
| GGTGCATGTG | 0.9713 ± 0.0013 |
| GGTGCCTGAG | 1.06 ± 0.03 |
| GGTGCGGCTG | 1.01 ± 0.073 |
| GGTGCGGGAC | 1.16 ± 0.12 |
| GGTGCGTTCT | 1 ± 0.043 |
| GGTGCTGTCC | 1.033 ± 0.0011 |
| GGTGCTTATA | 1 ± 0.013 |
| GGTGGACCGA | 0.984 ± 0.083 |
| GGTGGAGAGC | 0.99885 ± 0.00089 |
| GGTGGATTCG | 1.06 ± 0.063 |
| GGTGGCTGAA | 0.99 ± 0.022 |
| GGTGGGAAGG | 0.993 ± 0.02 |
| GGTGGGATGT | 0.981 ± 0.02 |
| GGTGGGGGAT | 1.01 ± 0.015 |
| GGTGGGGTAA | 0.9927 ± 0.0083 |
| GGTGGGGTAG | 0.988 ± 0.021 |
| GGTGGGGTGT | 0.982 ± 0.05 |

| Sequence | switch fluorescence ratio |
| --- | --- |
| GGTGGGTAAT | 0.983 ± 0.015 |
| GGTGGGTCGT | 1.014 ± 0.0095 |
| GGTGGGTTAG | 1.02 ± 0.032 |
| GGTGTAGGCG | 0.969 ± 0.039 |
| GGTGTATAGT | 0.9908 ± 0.0079 |
| GGTGTCGTG | 0.98 ± 0.024 |
| GGTGTCTGT | 0.9738 ± 0.0044 |
| GGTGTGATGG | 0.9512 ± 0.0085 |
| GGTGTGCCGT | 0.989 ± 0.1 |
| GGTGTGGGGA | 0.994 ± 0.025 |
| GGTGTGTAGA | 1.02 ± 0.038 |
| GGTGTGTTAA | 0.996 ± 0.042 |
| GGTGTGTTTG | 1.01 ± 0.046 |
| GGTGTTAGAG | 0.985 ± 0.0036 |
| GGTGTTGAGA | 1.01 ± 0.04 |
| GGTGTTGGAG | 0.997 ± 0.019 |
| GGTGTTTCAT | 0.973 ± 0.053 |
| GGTGTTTTTA | 1.07 ± 0.067 |
| GGTTAAACAG | 0.982 ± 0.041 |
| GGTTAAATTT | 0.987 ± 0.021 |
| GGTTAACTAG | 1.02 ± 0.011 |
| GGTTAACTGG | 0.991 ± 0.023 |
| GGTTAAGATG | 0.986 ± 0.01 |
| GGTTAAGGTG | 1.28 ± 0.071 |
| GGTTAATCGG | 0.9983 ± 0.0029 |
| GGTTAATTGG | 0.99 ± 0.047 |

| Sequence | switch fluorescence ratio |
| --- | --- |
| GGTTACCAGA | 0.9973 ± 0.0065 |
| GGTTACCGGC | 0.977 ± 0.079 |
| GGTTACTGGA | 1.02 ± 0.018 |
| GGTTACTTGG | 0.9885 ± 0.0097 |
| GGTTAGCTGC | 0.991 ± 0.023 |
| GGTTAGGTCG | 1.06 ± 0.081 |
| GGTTAGGTGG | 0.99 ± 0.044 |
| GGTTATCTTG | 1.01 ± 0.019 |
| GGTTATGGCT | 0.9973 ± 0.0025 |
| GGTTATTGTG | 0.968 ± 0.027 |
| GGTTCAAGGA | 0.99 ± 0.063 |
| GGTTCAGCGC | 1.03 ± 0.041 |
| GGTTCAGGGT | 1.02 ± 0.023 |
| GGTTCATGGT | 0.989 ± 0.011 |
| GGTTCATTAG | 1.01 ± 0.037 |
| GGTTCCAAAA | 1.02 ± 0.029 |
| GGTTCGAAGT | 1.01 ± 0.048 |
| GGTTCGGCTG | 0.982 ± 0.012 |
| GGTTCTATAG | 0.993 ± 0.02 |
| GGTTCTGGCC | 0.996 ± 0.013 |
| GGTTCTTAGG | 1.01 ± 0.032 |
| GGTTCTTAGT | 0.978 ± 0.05 |
| GGTTCTTATT | 1.017 ± 0.0064 |
| GGTTGAAGTA | 0.989 ± 0.047 |
| GGTTGAATTG | 0.974 ± 0.01 |
| GGTTGAGTG | 0.977 ± 0.0033 |

| Sequence | switch fluorescence ratio |
| --- | --- |
| GGTTGATTGG | 0.973 ± 0.014 |
| GGTTGCAAGC | 1.05 ± 0.017 |
| GGTTGCCTGC | 0.96 ± 0.029 |
| GGTTGCTCGG | 0.998 ± 0.026 |
| GGTTGCTGCC | 0.9917 ± 0.0029 |
| GGTTGGAATA | 0.965 ± 0.044 |
| GGTTGGAATG | 1.08 ± 0.18 |
| GGTTGGAGGT | 0.971 ± 0.019 |
| GGTTGGGCGA | 0.986 ± 0.021 |
| GGTTGGGGGC | 0.991 ± 0.025 |
| GGTTGGGGTT | 0.942 ± 0.039 |
| GGTTGGGTG | 1.03 ± 0.013 |
| GGTTGGGTTT | 0.989 ± 0.03 |
| GGTTGGTACT | 1 ± 0.026 |
| GGTTGGTATG | 0.987 ± 0.027 |
| GGTTGGTCTT | 0.974 ± 0.041 |
| GGTTGTACGA | 0.986 ± 0.01 |
| GGTTGTACGT | 0.984 ± 0.01 |
| GGTTGTGATA | 0.999 ± 0.044 |
| GGTTGTGGGA | 0.98 ± 0.053 |
| GGTTGTGGTT | 0.998 ± 0.031 |
| GGTTGTGTTA | 0.998 ± 0.013 |
| GGTTGTTCGT | 1.006 ± 0.0037 |
